Source: patent publication US20260274968A1

Legend:
[1] = molecular target: human recombinant IL-18-BP (human) (UniProt O95998)
[2] = molecular target: human IL-18 receptor complex (IL-18Rα/β) (human) (UniProt Q13478)
[3] = molecular target: human recombinant IL-18-BP (human) (UniProt O95998); assay: cell-based or functional assay

Sequence of human recombinant IL-18-BP (human) (O95998 31-194 limits assumed): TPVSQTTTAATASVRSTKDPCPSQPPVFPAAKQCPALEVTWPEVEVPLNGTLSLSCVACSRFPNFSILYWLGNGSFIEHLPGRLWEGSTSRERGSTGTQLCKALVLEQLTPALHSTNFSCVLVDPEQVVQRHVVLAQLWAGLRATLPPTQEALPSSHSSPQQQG
Sequence of recombinant human mature IL-18 (Q14116 37-193): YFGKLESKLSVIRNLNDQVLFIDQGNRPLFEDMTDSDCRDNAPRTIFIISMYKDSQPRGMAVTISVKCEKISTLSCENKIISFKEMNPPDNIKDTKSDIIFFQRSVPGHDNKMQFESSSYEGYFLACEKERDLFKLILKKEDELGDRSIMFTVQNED
Sequence of human IL-18 receptor complex (IL-18Rα/β) (human) (Q13478 19-541, chain 1 of 2): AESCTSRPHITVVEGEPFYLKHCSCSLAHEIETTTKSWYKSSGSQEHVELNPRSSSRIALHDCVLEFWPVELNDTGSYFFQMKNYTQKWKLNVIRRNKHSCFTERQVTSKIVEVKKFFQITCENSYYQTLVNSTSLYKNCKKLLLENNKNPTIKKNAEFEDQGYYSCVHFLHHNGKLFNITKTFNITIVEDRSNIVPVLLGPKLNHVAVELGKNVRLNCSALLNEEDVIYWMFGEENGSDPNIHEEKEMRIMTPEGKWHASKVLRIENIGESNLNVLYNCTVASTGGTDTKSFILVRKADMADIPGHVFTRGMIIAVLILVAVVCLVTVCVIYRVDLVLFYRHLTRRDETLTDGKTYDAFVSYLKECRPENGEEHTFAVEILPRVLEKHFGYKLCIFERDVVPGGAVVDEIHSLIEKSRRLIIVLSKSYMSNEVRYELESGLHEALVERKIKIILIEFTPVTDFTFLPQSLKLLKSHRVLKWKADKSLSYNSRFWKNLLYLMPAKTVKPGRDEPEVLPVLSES
Sequence of human IL-18 receptor complex (IL-18Rα/β) (human) (O95256 20-599, chain 2 of 2, further chain): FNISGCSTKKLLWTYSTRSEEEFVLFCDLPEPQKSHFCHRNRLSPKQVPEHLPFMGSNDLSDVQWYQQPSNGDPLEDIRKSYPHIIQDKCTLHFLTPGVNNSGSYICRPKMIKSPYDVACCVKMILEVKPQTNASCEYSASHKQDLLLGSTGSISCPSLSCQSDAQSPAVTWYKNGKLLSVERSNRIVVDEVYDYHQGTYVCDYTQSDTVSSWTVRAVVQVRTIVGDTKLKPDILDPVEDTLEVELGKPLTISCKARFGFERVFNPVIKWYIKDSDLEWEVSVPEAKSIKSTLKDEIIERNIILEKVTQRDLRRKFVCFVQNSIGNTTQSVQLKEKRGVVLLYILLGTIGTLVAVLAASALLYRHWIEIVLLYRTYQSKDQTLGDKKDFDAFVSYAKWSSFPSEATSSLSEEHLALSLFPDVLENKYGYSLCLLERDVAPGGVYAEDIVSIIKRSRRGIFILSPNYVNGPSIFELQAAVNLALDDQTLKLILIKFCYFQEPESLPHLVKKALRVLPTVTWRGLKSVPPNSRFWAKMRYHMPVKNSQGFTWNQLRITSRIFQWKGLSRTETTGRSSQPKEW

Substance “recombinant human mature IL-18 (from UniProt Q14116 37-193) (ligand)” has an EC50-SEAP, HEK-Blue IL-18 reporter cells, rhIL-18 titrated in medium with 1.25 µg/ml rhIL-18BP (row 'Human rIL-18 + BP') [1] of over 1 ng/mL, an EC50-SEAP, HEK-Blue IL-18 reporter cells, rhIL-18 titrated in medium alone (row 'Human rIL-18') [2] of 0.0317 ng/mL and an EC50-SEAP (HEK Blue IL-18), fold attenuation by 1.25 µg/ml hrIL-18-BP [3] of over 1000 fold.
